Experimental data: article PMC11868491

B1: EMSA_probe-Crz1/CMK2-F/R (DIG-labeled) (dsDNA)
DNA 1: AACGCAGCGCGAAGAGAATAATTGAGGCTTATCTTAGAACCCTGCCCCC
DNA 2: GGGGGCAGGGTTCTAAGATAAGCCTCAATTATTCTCTTCGCGCTGCGTT
B2: EMSA_probe-Crz1/CMK2-F/R (unlabeled competitor) (dsDNA)
DNA 1: B1 DNA 1
DNA 2: B1 DNA 2

Columns and labels:
His6-Crz1(N339-S678) [1] = molecular target: T1, His6-Crz1(N339-S678) (Saccharomyces cerevisiae BY4743, UniProt P53968 339-678); experiment: EMSA
His6-Crz1(N339-S678) [2] = molecular target: T1, His6-Crz1(N339-S678); experiment: competition

T1 sequence (P53968 339-678): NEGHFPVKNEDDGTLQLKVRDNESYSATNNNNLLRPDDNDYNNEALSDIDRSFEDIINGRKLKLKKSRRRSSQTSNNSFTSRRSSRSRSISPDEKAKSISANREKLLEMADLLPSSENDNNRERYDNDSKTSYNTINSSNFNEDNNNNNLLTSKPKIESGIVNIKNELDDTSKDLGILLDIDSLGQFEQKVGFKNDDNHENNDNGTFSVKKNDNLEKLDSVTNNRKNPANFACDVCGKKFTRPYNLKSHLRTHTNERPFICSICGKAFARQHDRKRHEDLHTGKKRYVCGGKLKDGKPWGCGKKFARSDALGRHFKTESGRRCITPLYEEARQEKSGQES

Row | Binder | binding result (His6-Crz1(N339-S678) [1]) | binding result (His6-Crz1(N339-S678) [2])
1 | B1 | binds | –
2 | B2 | – | binds
